Source: US20200339959A1 (Memorial Sloan Kettering, published 2020)

Legend:
Flag-tagged human IRF3 = target: T1, Flag-tagged human IRF3 (human, UniProt Q14653 1-427); test: co-immunoprecipitation from HEK293T lysates: IP anti-C7, blot anti-Flag
T1 construct: also called transcription factor IRF3; not shown: Flag tag
T1 sequence: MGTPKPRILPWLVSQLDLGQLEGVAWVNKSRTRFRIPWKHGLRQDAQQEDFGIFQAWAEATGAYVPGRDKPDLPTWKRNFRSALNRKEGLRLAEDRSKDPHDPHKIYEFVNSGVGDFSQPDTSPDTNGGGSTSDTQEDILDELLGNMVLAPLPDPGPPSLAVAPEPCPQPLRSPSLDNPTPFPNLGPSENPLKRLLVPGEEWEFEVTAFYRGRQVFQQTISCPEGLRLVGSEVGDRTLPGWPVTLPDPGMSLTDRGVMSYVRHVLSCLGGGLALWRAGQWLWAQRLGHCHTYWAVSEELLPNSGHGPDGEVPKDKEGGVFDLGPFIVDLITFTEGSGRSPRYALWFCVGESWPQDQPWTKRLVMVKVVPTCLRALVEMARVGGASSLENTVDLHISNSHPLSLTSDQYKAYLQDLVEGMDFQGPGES

Flag-tagged human STAT2 = target: T2, Flag-tagged human STAT2 (human, UniProt P52630 1-851); test: co-immunoprecipitation from HEK293T lysates: IP anti-HA, blot anti-Flag
T2 construct: also called flag-STAT2; not shown: Flag tag

Flag-tagged human STAT1 = target: T3, Flag-tagged human STAT1 (human, UniProt P42224 1-750); test: as above
T3 construct: also called flag-STAT1; not shown: Flag tag
T3 sequence: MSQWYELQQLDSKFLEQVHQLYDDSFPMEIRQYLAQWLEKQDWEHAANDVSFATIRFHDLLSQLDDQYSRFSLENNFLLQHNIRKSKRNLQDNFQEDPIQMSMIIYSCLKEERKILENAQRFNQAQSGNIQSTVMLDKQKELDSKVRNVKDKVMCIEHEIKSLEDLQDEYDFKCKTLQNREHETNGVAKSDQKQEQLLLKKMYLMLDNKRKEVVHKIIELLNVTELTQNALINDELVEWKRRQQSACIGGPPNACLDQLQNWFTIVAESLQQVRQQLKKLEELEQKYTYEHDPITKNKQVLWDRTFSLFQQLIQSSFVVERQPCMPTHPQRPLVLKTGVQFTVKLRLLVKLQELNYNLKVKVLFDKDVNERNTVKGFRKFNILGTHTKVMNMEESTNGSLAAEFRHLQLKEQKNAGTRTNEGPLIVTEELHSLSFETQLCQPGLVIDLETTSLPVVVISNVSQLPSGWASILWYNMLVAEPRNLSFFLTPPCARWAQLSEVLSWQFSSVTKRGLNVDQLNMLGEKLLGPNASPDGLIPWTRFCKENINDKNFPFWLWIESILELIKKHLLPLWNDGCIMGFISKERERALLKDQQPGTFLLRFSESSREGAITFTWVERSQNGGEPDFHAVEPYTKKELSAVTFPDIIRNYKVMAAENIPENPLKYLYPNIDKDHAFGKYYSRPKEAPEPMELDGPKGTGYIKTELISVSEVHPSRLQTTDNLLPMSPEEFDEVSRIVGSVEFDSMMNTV

B1: vaccinia virus C7 protein (other)
chain: MGIQHEFDIIINGDIALRNLQLHKGDNYGCKLKIISNDYKKLKFRFIIRPDWSEIDEVKGLTVFANNYAVKVNKVDDTFYYVIYEAVIHLYNKKTEILIYSDDENELFKHYYPYISLNMISKKYKVKEENYSSPYIEHPLIPYRDYESMD
notes: also called vaccinia C7; C7L gene product
binding result (Flag-tagged human IRF3): binds

B2: HA-tagged vaccinia C7 (other)
chain: B1 chain
notes: also called C7-HA; HA-tagged C7
binding result (Flag-tagged human STAT2): binds | binding result (Flag-tagged human STAT1): no binding
